The target in experiment [1] is EYFP-CD74minRTS (pEYFP-C1-CD74minRTS) (human) (UniProt P04233). The experiment in a line: FRET or BRET; FLIM-FRET (TCSPC, two-photon microscope, FALCON) in fixed HEK293 cells co-transfected with ECFP-CXCR4 (donor) and EYFP-CD74 (acceptor).
Experiment [2] shares this target. Briefly: FRET or BRET; FLIM-FRET (TCSPC, two-photon microscope, FALCON) in fixed Huh-7 cells co-transfected with ECFP-CXCR4 (donor) and EYFP-CD74 (acceptor); donor-alone lifetime 2.52 ns used; also with MIF-2 stimulation before fixation (FRET efficiency increased).
Experiment [3] has the same target. Briefly: FRET or BRET; FLIM-FRET in live HEK293 cells co-transfected with ECFP-CXCR4 and EYFP-CD74, monitored at one-minute intervals during exposure to MIF-2 (4 nM, 10 min, 37 °C); MIF (8 nM) as comparison reduced the lifetime to a lesser extent.

Sequence of UniProt P04233 (P04233 whole entry): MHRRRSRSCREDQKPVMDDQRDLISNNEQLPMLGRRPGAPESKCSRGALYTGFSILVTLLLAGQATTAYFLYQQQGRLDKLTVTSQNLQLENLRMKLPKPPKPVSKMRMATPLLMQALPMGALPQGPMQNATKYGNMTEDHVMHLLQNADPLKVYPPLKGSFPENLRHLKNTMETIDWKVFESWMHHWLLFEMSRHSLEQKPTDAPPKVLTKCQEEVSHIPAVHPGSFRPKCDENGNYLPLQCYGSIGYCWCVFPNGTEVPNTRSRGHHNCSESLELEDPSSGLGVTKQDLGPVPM

Take “ECFP-tagged CXCR4 (pECFP-N1-CXCR4) (from UniProt P61073 1-352) (receptor)”: the results for the FRET efficiency in experiment [1] and in experiment [2] were 50% and 17 to 20%, respectively. The fluorescence lifetime of the donor ECFP-CXCR4 with the acceptor, after MIF-2 stimulation in experiment [3] was found to be 2 ns.

Source of the values: PMC11889166.
